# Assay results: article PMC12004702, “Characterization of a rhodopsin-phosphodiesterase from Choanoeca flexa to be combined with rhodopsin-cyclases for bidirectional optogenetic cGMP control” (The Journal of Biological Chemistry, 2025)
# B1: CfRhPDE1 (Choanoeca flexa) (protein)
# chain: MSKAMTMREEAALELKRKGKVKNVAIATTSEVQKQGFFMMAVWIATVSILWLFSNPEASEAVFEKHGQLRVMYGATSVAFAFATALDVLAYVNAVSDEKRVLSGVLAYVDGAACLSYAAMASLPLYFILDSHNGNPIWLMRYAEWLITCPTLLYWCGLATRGERGAVADIATGDAMLLAGGALSSILPGWPSYFVFMGSVAAFVYVMTHMWGLFSKAMQPDFSPAPPLPRTALNLMRWEIVLSWTCFPMIEYSRRYFGLDYQTGEALNSIIDYAAKVGLAMIMVNCNLEQINAIKVEQMQSAMSGMVKVMRKTNARVELDGMDDDVKGWLLNEYAGDDGEDEVKVSSKSKRNQKSINPEEISASALFSWDFCSLDKSEEDLVGICIRVFRELKMIEVFDLDESKLRRFILGVRSRYNKNPFHNWKHAVMVLHTCYLFITQVAAEFCTDLEVLALLFAALCHDCDHNGVNNAFHINSRSDLALLYNDQSVLENHHCYSGFDVLYDKGNNFLDVLSEGDFKRFRSLVIDCILGTDMAHHASKLGKLEEINRLGGFSNLAENDEQRAFVMVTLLHTSDLYNPIKPFHITKKWANRLQREFNQQVEVESQMGLPSLPFMKGQGELALAKGEVGFITFVIRPWYVQLTNAFPKIDFLMDNIDTNLDMWKSIVESHE
# notes: full-length, N-terminal Venus tag kept, no other change from WT; codon-optimized; membranes of ND7/23 cells; modelled as dimer
# Substrate: [H][C@@]12COP(=O)(O)O[C@@]1([H])[C@@H](O)[C@H](n1cnc3c(=O)[nH]c(N)nc31)O2
# Assay: HPLC initial-rate assay, Michaelis-Menten fit, membrane fraction
# Type: biochemical, Choanoeca flexa
# Settings: 5 mM MgCl2, 20 mM Hepes, 100 mM NaCl, 5 mM DTT, 5% glycerol
# [1] = light-adapted state (470 nm, 30 μW/mm^2)
protein,measurement,setting,value
B1,Km,darkness (dark-adapted state),4.4 ± 0.6 µM
same,kcat,darkness (dark-adapted state),2.0 ± 0.1 s⁻¹
same,Km,[1],1.9 ± 0.1 µM
same,kcat,[1],4.7 ± 0.1 s⁻¹
